Patent CN115043938A (DUAN LIANGWEI; JIANG ZHIHUA; WANG HUI, dated 2022)

Target: SARS-CoV-2 Beta S蛋白 (假病毒) (SARS-CoV-2 Beta, UniProt P0DTC2 14-1273)
Experiment: cell-based or functional assay

Row | Binder | 假病毒中和 IC50
1 | 抗体Amb2 (antibody, V domains shown) VH: EVQLLESGPGLVKPSETLSLTCTVSGGSISNSSYYWGWIRQPPGKGLEWIGSIYYSGSTYYNPSLKSRVTISVDTSKNQFSLKLSSVTAADTGVYYCASWLYGDPISFDYWGQGTLVTVSS VL: not shown | 0.0452 µg/mL
2 | 抗体Amb1 (antibody, V domains shown) VH: EVQLLESGTEVKKPGSSVKVSCKASGGTFSSYAISWVRQAPGQGLEWMGGIIPILGIANYAQKFQGRVTITADKSTSTAYMELSSLRSEDTAVYYCARERGYSGYGAAYYFDYWGQGTLVTVSS VL: QSVLTQAPSVSGAPGQSVTISCTGSSSNIGAGYDVHWYQQLPGTAPKLLIYGNNNRPSGVPDRFSGSKSGTSASLAITGLQAEDEADYYCQSYDSSLSKGVFGGGTKLTVL | 0.0266 µg/mL
